Data published in the supplement of paper PMC7877785.
± gives the uncertainty stated by the source.

Assay: self-splicing fitness, log relative to wild type (ln ratio); higher = more splicing; Tetrahymena group I intron in knt gene, E. coli kanamycin selection, DiMSum; sequences stand for … in CUCUCU…GGAGGGAAAAGUUAUCAGGCAUGCACCUGGUAGCUAGUCUUUAAACCAAUAGAUUGCAUCGGUUUAAAAGGCAAGACCGUCAAAUUGCGGGAAAGGGGUCAACAGCCGUUCAGUACCAAGUCUCAGGGGAAACUUUGAGAUGGCCUUGCAAAGGGUAUGGUAAUAAGCUGACGGACAUGGUCCUAACCACGCAGCCAAGUCCUAAGUCAACAGAUCUUCUGUUGAUAUGGAUGCAGUUCACAGACUAAAUGUCGGUCGGGGAAGAUGUAUUCUUCUCAUAAGAUAUAGUCGGACCUCUCCUUAAUGGGAGCUAGCGGAUGAAGUGAUGCAACACUGGAGCCGCUGGGAACUAAUUUGUAUGCGAAAGUAUAUUGAUUAGUUUUGGAGUACUCGUGGUCG
Procedure, shortened: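 The eight P1ex-region nucleotides of an intron in the knt kanamycin-resistance gene on pET-22b(+) were all randomised and the library put into E. coli BL21(DE3). Six replicate transformations were grown overnight at 37°C or 30°C on LB agar with or without 25 μg/mL kanamycin, together with 100 μg/mL carbenicillin, 50 μM IPTG and 0.2% rhamnose. Colonies were pooled and amplicon-sequenced on an Illumina HiSeq 2500. Fitness from DiMSum is the error-weighted combination of wild-type-normalised replicate fold changes, kanamycin over none.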

Sequence: CCGAAGCAAUAUUACGCCUA
- self-splicing fitness (ln) (30 °C): -2.94 ± 0.22
- self-splicing fitness (ln) (37 °C): -2.62 ± 0.28

Sequence: CAAAAGCAAUAUUACGCGAA
- self-splicing fitness (ln) (30 °C): -3.36 ± 0.23
- self-splicing fitness (ln) (37 °C): -1.3 ± 0.17

Sequence: GACGAGCAAUAUUACGCCUA
- self-splicing fitness (ln) (30 °C): -0.714 ± 0.32

Sequence: CACAAGCAAUAUUACGUGAG
- self-splicing fitness (ln) (30 °C): -4.48 ± 0.15
- self-splicing fitness (ln) (37 °C): -3.21 ± 0.19

Sequence: AUUGAGCAAUAUUACGCUAC
- self-splicing fitness (ln) (30 °C): -3.69 ± 0.37

Sequence: AAUAAGCAAUAUUACGAAAA
- self-splicing fitness (ln) (30 °C): -2.98 ± 0.28
- self-splicing fitness (ln) (37 °C): -1.76 ± 0.2

Sequence: UAACAGCAAUAUUACGCUCU
- self-splicing fitness (ln) (30 °C): -1.12 ± 0.073
- self-splicing fitness (ln) (37 °C): -0.498 ± 0.08

Sequence: GGUGAGCAAUAUUACGACCG
- self-splicing fitness (ln) (30 °C): -0.141 ± 0.11
- self-splicing fitness (ln) (37 °C): 0.778 ± 0.19

Sequence: UUGGAGCAAUAUUACGUGAG
- self-splicing fitness (ln) (30 °C): -1.84 ± 0.13
- self-splicing fitness (ln) (37 °C): -1.54 ± 0.2

Sequence: ACCCAGCAAUAUUACGCGCC
- self-splicing fitness (ln) (30 °C): -0.907 ± 0.064
- self-splicing fitness (ln) (37 °C): 0.136 ± 0.094

Sequence: AGGGAGCAAUAUUACGACUG
- self-splicing fitness (ln) (30 °C): -2.15 ± 0.24
- self-splicing fitness (ln) (37 °C): 0.0208 ± 0.21

Sequence: CGUAAGCAAUAUUACGCGCG
- self-splicing fitness (ln) (30 °C): -2.79 ± 0.16
- self-splicing fitness (ln) (37 °C): -1.71 ± 0.23

Sequence: CCCAAGCAAUAUUACGUAUA
- self-splicing fitness (ln) (30 °C): -2.91 ± 0.23
- self-splicing fitness (ln) (37 °C): -3.24 ± 0.23

Sequence: AUCUAGCAAUAUUACGAAUA
- self-splicing fitness (ln) (37 °C): -0.668 ± 0.32

Sequence: ACUAAGCAAUAUUACGAAUU
- self-splicing fitness (ln) (30 °C): -2.52 ± 0.096
- self-splicing fitness (ln) (37 °C): -0.972 ± 0.089

Sequence: UUCGAGCAAUAUUACGGCGA
- self-splicing fitness (ln) (30 °C): -2.23 ± 0.17
- self-splicing fitness (ln) (37 °C): -0.638 ± 0.18

Sequence: AGAGAGCAAUAUUACGUAGC
- self-splicing fitness (ln) (30 °C): -4.09 ± 0.3
- self-splicing fitness (ln) (37 °C): -3.62 ± 0.46

Sequence: AUAUAGCAAUAUUACGAGUG
- self-splicing fitness (ln) (30 °C): -2.78 ± 0.19
- self-splicing fitness (ln) (37 °C): -1.8 ± 0.2

Sequence: AAAUAGCAAUAUUACGAGUG
- self-splicing fitness (ln) (30 °C): -2.42 ± 0.12
- self-splicing fitness (ln) (37 °C): -0.435 ± 0.1

Sequence: CUGGAGCAAUAUUACGCCUG
- self-splicing fitness (ln) (30 °C): -1.22 ± 0.22
- self-splicing fitness (ln) (37 °C): -1.39 ± 0.28

Sequence: CGGAAGCAAUAUUACGUGUC
- self-splicing fitness (ln) (30 °C): -3.44 ± 0.28
- self-splicing fitness (ln) (37 °C): -1.94 ± 0.31

Sequence: ACUUAGCAAUAUUACGUGCU
- self-splicing fitness (ln) (30 °C): -1.9 ± 0.094
- self-splicing fitness (ln) (37 °C): -1.06 ± 0.1

Sequence: GAGAAGCAAUAUUACGGAUG
- self-splicing fitness (ln) (30 °C): -2.5 ± 0.14
- self-splicing fitness (ln) (37 °C): -0.821 ± 0.13

Sequence: UCUUAGCAAUAUUACGCGGG
- self-splicing fitness (ln) (30 °C): -2.21 ± 0.22
- self-splicing fitness (ln) (37 °C): -2.5 ± 0.34

Sequence: GUCAAGCAAUAUUACGUACC
- self-splicing fitness (ln) (30 °C): -0.597 ± 0.3
- self-splicing fitness (ln) (37 °C): -1.73 ± 0.43

Sequence: UAUUAGCAAUAUUACGGAUC
- self-splicing fitness (ln) (30 °C): -1.65 ± 0.18
- self-splicing fitness (ln) (37 °C): -0.508 ± 0.28

Sequence: GUCGAGCAAUAUUACGGAUA
- self-splicing fitness (ln) (37 °C): -1.25 ± 0.27

Sequence: CCGCAGCAAUAUUACGUCAC
- self-splicing fitness (ln) (30 °C): -4.14 ± 0.19
- self-splicing fitness (ln) (37 °C): -2.84 ± 0.22

Sequence: AUUCAGCAAUAUUACGUAGA
- self-splicing fitness (ln) (30 °C): -1.35 ± 0.066
- self-splicing fitness (ln) (37 °C): -0.424 ± 0.094

Sequence: GGGCAGCAAUAUUACGGCUG
- self-splicing fitness (ln) (30 °C): -2.27 ± 0.15
- self-splicing fitness (ln) (37 °C): -1.8 ± 0.18

Sequence: CAUCAGCAAUAUUACGCAAG
- self-splicing fitness (ln) (30 °C): -0.655 ± 0.065
- self-splicing fitness (ln) (37 °C): -0.304 ± 0.065

Sequence: AGGCAGCAAUAUUACGUGGA
- self-splicing fitness (ln) (30 °C): -4.02 ± 0.26
- self-splicing fitness (ln) (37 °C): -2.6 ± 0.14

Sequence: AACGAGCAAUAUUACGUACU
- self-splicing fitness (ln) (30 °C): -1.04 ± 0.067
- self-splicing fitness (ln) (37 °C): -1.04 ± 0.079

Sequence: UGAAAGCAAUAUUACGGAUA
- self-splicing fitness (ln) (30 °C): -1.56 ± 0.13
- self-splicing fitness (ln) (37 °C): -1.1 ± 0.14

Sequence: GCUUAGCAAUAUUACGAGCC
- self-splicing fitness (ln) (30 °C): -4.35 ± 0.39
- self-splicing fitness (ln) (37 °C): -1.53 ± 0.39

Sequence: UAAGAGCAAUAUUACGUAUU
- self-splicing fitness (ln) (30 °C): -4.58 ± 0.34
- self-splicing fitness (ln) (37 °C): -2.02 ± 0.2

Sequence: GGGUAGCAAUAUUACGAGCA
- self-splicing fitness (ln) (30 °C): -0.991 ± 0.2
- self-splicing fitness (ln) (37 °C): 0.0569 ± 0.17

Sequence: CAUGAGCAAUAUUACGGUAU
- self-splicing fitness (ln) (30 °C): -4 ± 0.39
- self-splicing fitness (ln) (37 °C): -3.54 ± 0.33

Sequence: ACACAGCAAUAUUACGGUAA
- self-splicing fitness (ln) (30 °C): -3.67 ± 0.21
- self-splicing fitness (ln) (37 °C): -1.18 ± 0.1

Sequence: UACGAGCAAUAUUACGAAGA
- self-splicing fitness (ln) (30 °C): -2.13 ± 0.37

Sequence: AGACAGCAAUAUUACGAUUU
- self-splicing fitness (ln) (30 °C): 0.0877 ± 0.068
- self-splicing fitness (ln) (37 °C): 0.119 ± 0.086

Sequence: AUAAAGCAAUAUUACGGAUC
- self-splicing fitness (ln) (30 °C): -1.55 ± 0.13
- self-splicing fitness (ln) (37 °C): -0.273 ± 0.15

Sequence: CACAAGCAAUAUUACGCAAG
- self-splicing fitness (ln) (30 °C): -1.54 ± 0.087
- self-splicing fitness (ln) (37 °C): -0.814 ± 0.1

Sequence: UCGCAGCAAUAUUACGGUAC
- self-splicing fitness (ln) (37 °C): -2.21 ± 0.31

Sequence: UCGGAGCAAUAUUACGGCCA
- self-splicing fitness (ln) (30 °C): -3.25 ± 0.44
- self-splicing fitness (ln) (37 °C): -1.63 ± 0.35

Sequence: GACUAGCAAUAUUACGAAUC
- self-splicing fitness (ln) (30 °C): -2.28 ± 0.32
- self-splicing fitness (ln) (37 °C): -1.83 ± 0.28

Sequence: CACCAGCAAUAUUACGCUGG
- self-splicing fitness (ln) (30 °C): -5.21 ± 0.25
- self-splicing fitness (ln) (37 °C): -2.41 ± 0.16

Sequence: UCGCAGCAAUAUUACGUGUA
- self-splicing fitness (ln) (30 °C): -1.19 ± 0.082
- self-splicing fitness (ln) (37 °C): -0.901 ± 0.083

Sequence: GAAGAGCAAUAUUACGAGCC
- self-splicing fitness (ln) (30 °C): -1.61 ± 0.24
- self-splicing fitness (ln) (37 °C): -0.252 ± 0.36

Sequence: UAAUAGCAAUAUUACGGUCA
- self-splicing fitness (ln) (30 °C): -0.412 ± 0.11
- self-splicing fitness (ln) (37 °C): -0.333 ± 0.11
